{
  "source": "paper PMC7844570",
  "target": "L-lysine α-oxidase precursor from Trichoderma viride (Trichoderma viride)",
  "assay": "crystal structure; prLysOX crystals by sitting-drop vapor diffusion at 20 °C, 0.1 M Tris-HCl pH 8.0-9.0, 2-2.1 M ammonium dihydrogen phosphate; space group C222(1); one molecule in the asymmetric unit, dimer formed by crystallographic two-fold symmetry; 1.97 Å",
  "data": [
    {"substance": "L-lysine α-oxidase precursor from Trichoderma viride (enzyme)", "values": [
      {"measurement": "stoichiometry N", "result": 2}
    ]}
  ]
}
